Positions count from the first letter of the chain named.
T1: extracellular domain of human CD73 protein (CD73-ECD), C-terminus polyhistidine-tagged (human, UniProt P21589 27-547)
T1 construct: also called Human CD73-ECD; human recombinant CD73 enzyme (CD73 extracellular domain)
T1 sequence: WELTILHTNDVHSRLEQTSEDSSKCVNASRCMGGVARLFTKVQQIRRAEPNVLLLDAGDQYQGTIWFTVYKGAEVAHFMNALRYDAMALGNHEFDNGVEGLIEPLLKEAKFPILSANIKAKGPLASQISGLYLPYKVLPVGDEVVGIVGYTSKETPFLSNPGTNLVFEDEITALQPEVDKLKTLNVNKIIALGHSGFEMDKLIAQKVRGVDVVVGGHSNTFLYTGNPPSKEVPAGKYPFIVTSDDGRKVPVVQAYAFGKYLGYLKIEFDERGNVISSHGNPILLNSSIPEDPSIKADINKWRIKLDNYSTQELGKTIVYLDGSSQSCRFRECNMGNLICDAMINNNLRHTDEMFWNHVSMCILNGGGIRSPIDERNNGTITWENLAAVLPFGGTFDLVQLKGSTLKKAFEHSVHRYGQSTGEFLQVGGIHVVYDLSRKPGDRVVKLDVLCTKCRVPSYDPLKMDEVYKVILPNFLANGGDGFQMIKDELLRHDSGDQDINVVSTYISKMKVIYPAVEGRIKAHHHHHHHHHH

T2: CD73 on the surface of human tumor cells (human, UniProt P21589 27-549)
T2 construct: whole, on cells; One entry for endogenous CD73 on all cell lines; the cell line is named under assay or readout; also called CD73 receptors on the surface of tumor cells; tumor cell CD73
T2 sequence (looked up): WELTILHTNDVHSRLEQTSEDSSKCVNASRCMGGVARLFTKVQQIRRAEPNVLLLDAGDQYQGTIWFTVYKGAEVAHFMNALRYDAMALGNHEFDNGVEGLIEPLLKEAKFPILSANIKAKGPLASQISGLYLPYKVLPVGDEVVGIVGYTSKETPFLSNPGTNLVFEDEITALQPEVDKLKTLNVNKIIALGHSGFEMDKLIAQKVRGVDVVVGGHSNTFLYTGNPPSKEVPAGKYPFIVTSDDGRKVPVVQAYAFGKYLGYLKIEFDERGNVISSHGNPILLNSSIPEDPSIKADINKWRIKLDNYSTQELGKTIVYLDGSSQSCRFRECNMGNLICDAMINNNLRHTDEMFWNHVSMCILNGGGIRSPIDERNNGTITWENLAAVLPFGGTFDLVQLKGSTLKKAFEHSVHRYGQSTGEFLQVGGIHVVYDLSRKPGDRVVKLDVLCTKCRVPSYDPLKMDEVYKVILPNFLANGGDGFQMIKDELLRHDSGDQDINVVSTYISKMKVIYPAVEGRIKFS

B1: Hu002c-6 (antibody, V domains shown)
VH: QVQLVQSGAEVKKPGASVKVSCKASGYTLTSYWMHWVRQAPGQGLEWIGEINPSQGRSNYNEKFKSRVTLTVDRSTSTVYMELSSLRSEDTAVYYCARRGVSGNYFDYWGQGTLVTVSS
VL: DIQMTQSPSSLSASVGDRVTITCKASQDINTYLSWFQQKPGKAPKSLIYRSNILVSGVPSRFSGSGSGQDYTLTISSLQPEDFATYYCLQYDEFPYTFGQGTKLEIK
notes: Humanized
B2: Hu002c-8 (antibody, V domains shown)
VH: B1 VH
VL: DIQMTQSPSSLSASVGDRVTITCKASQDINTYLSWFQQKPGKSPKSLIYRSNILVSGVPSRFSGSGSGQDYTLTISSLQPEDFAIYYCLQYDEFPYTFGGGTKLEI
notes: Humanized
B3: Hu002c-15 (antibody, V domains shown)
VH: B1 VH with R38K, Q39K, R67K
VL: B1 VL with A43S, Q100G
notes: Humanized
B4: Hu002c-7 (antibody, V domains shown)
VH: B1 VH
VL: B1 VL with A43S, Q100G
notes: Humanized
B5: Hu002c-3 (antibody, V domains shown)
VH: B1 VH with I48M, L70M, V72R, R74T
VL: B1 VL with A43S, Q100G
notes: Humanized
B6: Hu002c-14 (antibody, V domains shown)
VH: B1 VH with R38K, Q39K, R67K
VL: B1 VL
notes: Humanized
B7: Hu002c-2 (antibody, V domains shown)
VH: B1 VH with I48M, L70M, V72R, R74T
VL: B1 VL
notes: Humanized
B8: Hu002c-10 (antibody, V domains shown)
VH: B1 VH with R67K
VL: B1 VL
notes: Humanized
B9: Hu002c-11 (antibody, V domains shown)
VH: B1 VH with R67K
VL: B1 VL with A43S, Q100G
notes: Humanized
B10: Hu001c-21 (antibody, V domains shown)
VH: QVQLVQSGAEVKKPGASVKVSCKASGYTFTNYYIYWVRQAPGQRLEWIGWIYPGNLNIKYNEKFKGRVTITADKSASTAYMELSSLRSEDTAVYYCARDDNYAWFAYWGQGTLVTVSS
VL: DIQMTQSPSSLSASVGDRVTITCKASQDVSTAVAWYQQKPGKAPKLLIYWTNTRHTGVPSRFSGSGSGTDHTLTISSLQPEDFATYYCQQHYSTPFTFGQGTKLEIK
notes: Humanized
B11: Hu001c-30 (antibody, V domains shown)
VH: B10 VH with R38K, A40R, V68S, I70L
VL: B10 VL with H71F
notes: Humanized
B12: Hu001c-31 (antibody, V domains shown)
VH: B10 VH with V68S, I70L
VL: B10 VL
notes: Humanized
B13: Hu001c-32 (antibody, V domains shown)
VH: B10 VH with R38K, A40R, V68S, I70L
VL: B10 VL
notes: Humanized
B14: Hu001c-28 (antibody, V domains shown)
VH: B10 VH with A24T, R38K, A40R, R44G
VL: B10 VL with A43S
notes: Humanized

Legend:
[1] = molecular target: T1, extracellular domain of human CD73 …; assay: ELISA, coated CD73-ECD
[2] = molecular target: T2, CD73 on the surface of human tumor cells; assay: flow cytometry, NCI-H1299 cells

Binder | binding result [1] | binding result [2]
B1 | binds | binds
B2 | binds | binds
B3 | binds | binds
B4 | binds | binds
B5 | binds | binds
B6 | binds | binds
B7 | binds | binds
B8 | binds | binds
B9 | binds | binds
B10 | binds | –
B11 | binds | binds
B12 | binds | binds
B13 | binds | binds
B14 | binds | binds
